From paper PMC9044917 (Nature structural & molecular biology, 2022)

B1: IMPDH1(514) (enzyme)
chain: not shown
B2: IMPDH1(514)-H372P (enzyme)
chain: not shown
B3: IMPDH1(514)-D226N (enzyme)
chain: not shown
B4: IMPDH1(514)-R224P (enzyme)
chain: not shown
B5: IMPDH1(514)-R105W (enzyme)
chain: not shown
B6: IMPDH1(514)-T116M (enzyme)
chain: not shown
B7: IMPDH1(514)-R231P (enzyme)
chain: not shown
B8: IMPDH1(514)-N198K (enzyme)
chain: not shown
B9: IMPDH1(514)-K238E (enzyme)
chain: not shown
B10: IMPDH1(514)-V268I (enzyme)
chain: not shown

Target: the molecule itself
Assay: negative stain EM

| Protein | binding result |
| --- | --- |
| B1 | binds |

Target: the molecule itself
Assay: negative stain EM
Remark: another data set of the same source

| Protein | binding result |
| --- | --- |
| B2 | binds |
| B3 | binds |
| B4 | binds |
| B5 | binds |
| B6 | binds |
| B7 | binds |
| B8 | binds |
| B9 | binds |
| B10 | binds |
